Results on 1 substance are retold here after article PMC11860714.

This assay concerns the target 329 SOSIP.v8.2 Env trimer (HIV-1 clade C). As to the kind of experiment: native gel or EMSA; BN-PAGE, NuPAGE 4–12% Bis-Tris gels; 2 µg SOSIP trimers or equimolar SOSIP–ferritin (2.5 µg) and SOSIP-I53-50 (3.2 µg) NPs.

For orientation: stoichiometry N means the number of molecules, sites or subunits per partner or assembly. “329 SOSIP.v8.2 Env trimer (domain or fragment)”: the stoichiometry N stood at 3.
